# B1: hz208F2 H077/L018: humanized 208F2; VH SEQ ID No. 57, VL SEQ ID No. 34 (antibody, V domains shown)
# VH: QVQLVQSGAEVKKPGASVKVSCKASGYTFTSYYIHWVRQAPGQGLEWMGWIWPGDGSTKYAQKFQGRVTMTRDTSTSTVYMELSSLRSEDTAVYFCASPMITPNYAMDYWGQGTLVTVSS
# VL: DIQMTQSPSSLSASVGDRVTITCRASQDISKYLNWYQQKPGKAPKLLIYYTSRLQSGVPSRFSGRGSGTDYSLTISSLQPEDFATYFCQQGSTLPYTFGGGTKVEIK
# modifications: hz208F2 heavy chain H077, VH; hz208F2 Light chain L018, VL
# Assays:
# IGF-1R on MCF-7 cells = biological target: T1, IGF-1R on MCF-7 cells (Homo sapiens, UniProt P08069); experiment: IGF-1R internalization by FACS on MCF-7 cells; assay type: cell-based; conditions: Table 14c; MCF-7, 10 μg/ml, 4 h
# T1 construct: host or cells: MCF-7
# Method: (§1) MCF-7 cells were incubated with 10 μg/ml of chimeric antibodies at 4° C. for 20 min. Then, cells were washed and incubated at 4° C. or 37° C. for 4 h. The quantity of cell-surface bound antibody was determined using a secondary antibody. The ΔMFI defined as the difference between MFI measured at 4° C. and MFI measured at 37° C. after a 4 hour incubation time corresponded to the quantity of internalized second IGF-1R antibodies Ab. The percentage of internalization at 10 μg/ml of Ab were calculated as followed 100*(MFI at 4° C.-MFI at 37° C.)/MFI at 4° C. and presented in Table 12.
# as §1, with “The capacity of the mAb hz208F2 H026/L024 to be internalized was assessed by flow cytometry. MCF-7” for “MCF-7”, “of” for “of chimeric”, “Then, cells were washed and incubated at 4° C. or 37° C. for 4 h.” left out, “internalized” for “internalized second IGF-1R antibodies”, “14a.” for “12.”
# MCF-7 cells were incubated with 10 μg/ml of humanized antibodies at 4° C. for 20 min. […] The quantity of cell-surface bound antibody was determined using a secondary antibody on a FacsCalibur Flow cytometer (Becton Dickinson). […]
# soluble form of h-IGF1R = biological target: T2, soluble form of h-IGF1R (Homo sapiens, UniProt P08069); experiment: Biacore binding competition on captured soluble h-IGF1R; conditions: antibodies 50 μg/ml, 25° C.
# T2 construct: a heterotetramer composed by two alpha chains and two extracellular domains of the beta chains; made in house
# Description: The experiment was run on a Biacore X100 device based on the Surface Plasmon Resonance technology. A CM5 sensor chip was activated with a mouse anti-polyHistidine IgG1 monoclonal antibody chemically linked to the carboxymethyldextran matrix using the amine coupling chemistry. Typically, 12451 RU and 12257 RU of antibodies were grafted on the flowcell 1 (FC1) and flowcell 2 (FC2) respectively. The classical HBS-EP+ buffer was used as the running buffer. This buffer was also used for the preparation of the solutions of the proteins. The experiment was carried at 25° C. and at a flow rate of […].
# The soluble form of IGF1R produced in house is a heterotetramer composed by two alpha chains and two extracellular domains of the beta chains completed by a 6 Histidine sequence at their C-terminal end. The protein is injected during one minute on the FC2 at the concentration of 30 μg/ml (about 80 nM). The antibodies are injected at the concentration of 50 μg/ml (about 330 nM). Either a first antibody solution (FIGS. 35B and 35D) or the running buffer (FIGS. 35A and 35C) is injected during 90 s on both flowcells. A second antibody solution is then injected on both flow cells. The absence of binding of the second antibody after the binding of the first antibody is the proof that both antibodies bind to a nearby site on the antigen (FIG. 35B) At the opposite the binding of the second antibody after the binding of the first antibody is the proof that the binding site of the second antibody is out and away of the binding site of the first antibody (FIG. 35D). At the end of each cycle, the sensor chip surface is regenerated by an injection of a Glycine, HCl 10 mM pH 1.5 buffer during 30 s.
# The levels of binding of the Ac2 (arrows) without (FIGS. 35A and 35B) or with an Ac1 (FIGS. 35C and 35D) were recorded 20 s after the end of the injection. The data are represented on the histogram graph in FIG. 36.
molecule,measurement,setting,value
B1,% Internalization,IGF-1R on MCF-7 cells,88%
same,ΔMFI,IGF-1R on MCF-7 cells,468
same,binding as Ac2 after Hz208F2-4 injected as Ac1,soluble form of h-IGF1R,completely blocks the binding of itself
